Measured values published in patent US20230372484A1 (VOR BIOPHARMA, published 2023).

Molecular target: CD33 (UniProt P20138 18-364, limits assumed)
Assay: cell-based or functional assay

CD33, sequence (P20138 18-364 limits assumed): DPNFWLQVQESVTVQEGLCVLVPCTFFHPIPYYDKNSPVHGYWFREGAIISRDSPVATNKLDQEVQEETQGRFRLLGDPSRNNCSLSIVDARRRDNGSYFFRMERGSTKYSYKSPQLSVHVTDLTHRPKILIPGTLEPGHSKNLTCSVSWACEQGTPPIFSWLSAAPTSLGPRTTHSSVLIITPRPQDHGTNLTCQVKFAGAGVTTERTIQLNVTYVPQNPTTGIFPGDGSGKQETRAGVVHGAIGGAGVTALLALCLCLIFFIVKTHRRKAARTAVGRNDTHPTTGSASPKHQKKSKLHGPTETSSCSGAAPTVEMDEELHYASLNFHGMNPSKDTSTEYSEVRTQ

Row | Ratio (NFAT-inducible reporter with wild-type MOLM-13 relative to MOLM-13 CD33KO) | Testing FP2 Expression (CD33+) | Binder
1 | 1.98 ratio | 17.6 % of constitutive-fluorescence-positive cells | CD33-CAR7 (other) MELGLSWVVLAALLQGVQAQVQLVQPGGSLRLFCVASEEFFSIYAMGWYRQAPGKQHEMVARFTRDGKITYADSAKGRFTITRDAKNTLNLQMNGLIPEDTAVYYCNINHYWGQGTQVTVSSAAATTTPAPRPPTPAPTIASQPLSLRPEACRPAAGGAVHTRGLDFACDIYIWAPLAGTCGVLLLSLVITLYCKRGRKKLLYIFKQPFMRPVQTTQEEDGCSCRFPEEEEGGCELRVKFSRSADAPAYQQGQNQLYNELNLGRREEYDVLDKRRGRDPEMGGKPRRKNPQEGLYNELQKDKMAEAYSEIGMKGERRRGKGHDGLYQGLSTATKDTYDALHMQALPPR
2 | 3.6 ratio | 22.9 % of constitutive-fluorescence-positive cells | CD33-CAR6 (other) QVQLVETGGGLVRAGGSLRLSCAASGRTADIYNIGWFRQAPGKEREFVAAITWIGRTPYYADAVKGRFAFSTDSAKNTVSLQMDNLKPEDTGVYYCNAAHYLEGNTDYYWGQGTQVTVSSAAATTTPAPRPPTPAPTIASQPLSLRPEACRPAAGGAVHTRGLDFACDIYIWAPLAGTCGVLLLSLVITLYCKRGRKKLLYIFKQPFMRPVQTTQEEDGCSCRFPEEEEGGCELRVKFSRSADAPAYQQGQNQLYNELNLGRREEYDVLDKRRGRDPEMGGKPRRKNPQEGLYNELQKDKMAEAYSEIGMKGERRRGKGHDGLYQGLSTATKDTYDALHMQALPPR
3 | 1.44 ratio | 3.9 % of constitutive-fluorescence-positive cells | CD33-CAR3 (other) QVQLVQSGAEVKKPGSSVKVSCKASGYTFTDYNMHWVRQAPGQGLEWIGYIYPYNGGTGYNQKFKSKATITADESTNTAYMELSSLRSEDTAVYYCARGRPAMDYWGQGTLVTVSSGGGGSGGGGSGGGGSDIQMTQSPSSLSASVGDRVTITCRASESVDNYGISFMNWFQQKPGKAPKLLIYAASNQGSGVPSRFSGSGSGTDFTLTISSLQPDDFATYYCQQSKEVPWTFGQGTKVEIKSGAAAIEVMYPPPYLDNEKSNGTIIHVKGKHLCPSPLFPGPSKPFWVLVVVGGVLACYSLLVTVAFIIFWVRSKRSRLLHSDYMNMTPRRPGPTRKHYQPYAPPRDFAAYRSRVKFSRSADAPAYQQGQNQLYNELNLGRREEYDVLDKRRGRDPEMGGKPRRKNPQEGLYNELQKDKMAEAYSEIGMKGERRRGKGHDGLYQGLSTATKDTYDALHMQALPPRGS
4 | 2.41 ratio | 4.14 % of constitutive-fluorescence-positive cells | CD33-CAR4 (other) EVQLVQSGAEVKKPGSSVKVSCKASGYTITDSNIHWVRQAPGQSLEWIGYIYPYNGGTDYNQKFKNRATLTVDNPTNTAYMELSSLRSEDTAFYYCVNGNPWLAYWGQGTLVTVSSGGGGSGGGGSGGGGSDIQLTQSPSTLSASVGDRVTITCRASESLDNYGIRFLTWFQQKPGKAPKLLMYAASNQGSGVPSRFSGSGSGTEFTLTISSLQPDDFATYYCQQTKEVPWSFGQGTKVEVKRTSSGAAAIEVMYPPPYLDNEKSNGTIIHVKGKHLCPSPLFPGPSKPFWVLVVVGGVLACYSLLVTVAFIIFWVRSKRSRLLHSDYMNMTPRRPGPTRKHYQPYAPPRDFAAYRSRVKFSRSADAPAYQQGQNQLYNELNLGRREEYDVLDKRRGRDPEMGGKPRRKNPQEGLYNELQKDKMAEAYSEIGMKGERRRGKGHDGLYQGLSTATKDTYDALHMQALPPRGS
5 | 8.5 ratio | 28.2 % of constitutive-fluorescence-positive cells | CD33-CAR5 (other) QVKLEESGGGSVQAGESLRLSCTASGITFRDYDIDWYRQAPGKEREWLATITPSGTTHYPDSVKGRATISRDSAKNTVYLQMNSLKPEDTARYECNTLAYWGSGTQVTVSSAAATTTPAPRPPTPAPTIASQPLSLRPEACRPAAGGAVHTRGLDFACDIYIWAPLAGTCGVLLLSLVITLYCKRGRKKLLYIFKQPFMRPVQTTQEEDGCSCRFPEEEEGGCELRVKFSRSADAPAYQQGQNQLYNELNLGRREEYDVLDKRRGRDPEMGGKPRRKNPQEGLYNELQKDKMAEAYSEIGMKGERRRGKGHDGLYQGLSTATKDTYDALHMQALPPR
